Numbering of substitutions follows the chain as printed.
Molecular target: T1, αβ tubulin dimer (pig, UniProt P02550;P02554)
T1 construct: source: purified from pig brain
Experiment: ELISA; tubulin coated on a Nunc Maxisorp 96-well plate; 5-20 μl of cytoplasmic extract of E. coli expressing the scFv; revealed with 9E10 and HRP anti-mouse IgG; also done in presence or absence of 10 mM DTT
Conditions: one partner purified

B1: anti-tubulin scFv E12C (scFv, V domains shown)
VH: EVQLVESGGSLVKPGGSLRLSCAASGFTFSNYSMNWVRQAPGKGLEWISSISGSSRYIYYADFVKGRFTISRDNATNSLYLQMNSLRAEDTAVYYCVRSGGNTFDYWGRGTLVTVSS
VL: QSVLTQPASVSGSPGQSITISCAGTSSDVGGYNYVSWYQQHPGKAPKLMIYEDSKRPSGVSNRFSGSKSGNTASLTISGLQAEDEADYYCQQYYRKPWTFGGGTKLAVL
notes: source: E. coli BL21(DE3)pLysS cytoplasm (pET23NN); in cell extract, and purified (Ni-NTA); not shown: c-myc, C-terminal, kept
Q: Does B1 bind?
A: Result: binds

B2: anti-tubulin scFv F1C (scFv, V domains shown)
VH: EVQLVESGGSLVKPGGSLRLSCAASGFTFSNYSMNWVRQAPGKGLEWISSISGSSRYIYYADFVKGRFTISRDNATNSLYLQMNSLRAEDTAVYYCVRGNADGGENWELFDKWGRGTLVTVSS
VL: B1 VL with Q92L, Y94Q, R95N, K96T, P97L
notes: as for B1
Q: Does B2 bind?
A: Result: binds

From publication PMC2241821, “A focused antibody library for selecting scFvs expressed at high levels in the cytoplasm” (BMC Biotechnology, 2007)
